Reference: patent US20250339493A1, “METHODS OF USING NEUREGULIN-4 COMPOUNDS” (priority 2022, published 2025)

Legend:
[1] = Single-ascending dose study in healthy participants: plasma pharmacokinetics after single SC or IV dose; parameters: species or system human; conditions: in vivo
Source text: A multiple-center, investigator- and participant-blind, randomized, placebo-controlled, single-ascending dose study is designed to evaluate the safety and tolerability of a single subcutaneous (SC) dose or an intravenous (IV) dose of the NRG4 compound of SEQ ID NO:1 in healthy participants. Cohorts 1-5 are intended to receive a single SC dose of the NRG4 compound or placebo. Cohort 6 is used to assess a single IV injection of the NRG4 compound. This cohort is to enable an estimation of absolute bioavailability of the NRG4 compound. Doses for the cohorts are as follows: • Cohort 1:1 mg (6 participants NRG4 compound; 2 participants placebo)· • Cohort 2:3 mg (6 participants NRG4 compound; 2 participants placebo). • Cohort 3:10 mg (6 participants NRG4 compound; 2 participants placebo). • Cohort 4:30 mg (6 participants NRG4 compound; 2 participants placebo). • Cohort 5:60 mg (6 participants NRG4 compound; 2 participants placebo). • Cohort 6 (8 participants 3 mg NRG4 compound IV) 48 participants received a dose of NRG4 compound or placebo, with eight males, and 40 females. The age range of the participants was 25 to 65 years. A stable dose of antihypertensive medication, with the exception of beta blockers, and lipid lowering medication were allowed. The study intervention was administered either via a single SC injection into the lower abdominal region or as an IV bolus from a syringe to an indwelling venous catheter. Study interventions administered are summarized in Table 2: On Day 1, participants receive a single dose of their assigned treatment (either NRG4 compound or placebo) for first 5 cohorts and NRG4 compound for the final IV cohort. PK sampling and safety assessments, including AEs, medical assessments, clinical laboratory tests, vital signs, and ECGs, were performed at predefined times through discharge from the CRU on Day 4. Dose escalated cohorts were only initiated after satisfactory review of the safety results from all participants receiving NRG4 compound in the preceding cohort through Day 4. Participants returned to the CRU for outpatient visits on Days 7 and 15 for PK, safety, and immunogenicity assessments, as appropriate. Follow-up visit for PK, safety, and immunogenicity monitoring occurred on Day 29. At the visits and times specified in the protocol venous blood samples of approximately 3 mL each were collected to determine the plasma concentrations of NRG4 compound. PK parameter estimates for NRG4 compound were calculated by standard noncompartmental methods of analysis using Phoenix WinNonlin Version 8.1. […] The PK parameters were summarized and listed separately for SC and IV-dosed cohorts. The plasma concentrations of the NRG4 compound were plotted and summarized. The dose proportionality for SC doses of NRG4 compound were assessed for the log-transformed Cmax, AUC (0-∞), and AUC (0-tlast) using a power model (where log-dose acted as an explanatory variable) to estimate ratios of dose normalized geometric means and corresponding 90% CIs. The estimated ratio of dose-normalized geometric means of PK parameters between the highest and lowest doses were used to assess dose proportionality.

[2] = Cynomolgus continuous SC infusion toxicology study; assay type: in vivo, cynomolgus monkey
Experimental: (§1) Table 3 presents the estimated margins of safety of 21 mg/day infused for 24 hours and 140 mg/day infused for 96 hours doses of NRG4 compound. The anticipated therapeutic benefit for patients with HFrEF outweighs any potential risks identified in the nonclinical safety profile.

[3] = Rat continuous SC infusion toxicology study; assay type: in vivo
Experimental: as §1

[4] = Single-ascending dose study in healthy participants: safety and tolerability; assay type: in vivo
Source text: A multiple-center, investigator- and participant-blind, randomized, placebo-controlled, single-ascending dose study is designed to evaluate the safety and tolerability of a single subcutaneous (SC) dose or an intravenous (IV) dose of the NRG4 compound of SEQ ID NO:1 in healthy participants. Cohorts 1-5 are intended to receive a single SC dose of the NRG4 compound or placebo. Cohort 6 is used to assess a single IV injection of the NRG4 compound. This cohort is to enable an estimation of absolute bioavailability of the NRG4 compound. Doses for the cohorts are as follows: • Cohort 1:1 mg (6 participants NRG4 compound; 2 participants placebo)· • Cohort 2:3 mg (6 participants NRG4 compound; 2 participants placebo). • Cohort 3:10 mg (6 participants NRG4 compound; 2 participants placebo). • Cohort 4:30 mg (6 participants NRG4 compound; 2 participants placebo). • Cohort 5:60 mg (6 participants NRG4 compound; 2 participants placebo). • Cohort 6 (8 participants 3 mg NRG4 compound IV)
48 participants received a dose of NRG4 compound or placebo, with eight males, and 40 females. The age range of the participants was 25 to 65 years. A stable dose of antihypertensive medication, with the exception of beta blockers, and lipid lowering medication were allowed. […]

[5] = cynomolgus monkey, in vivo, sc, 156 mg/kg/day
[6] = monkey NOAEL (M + F), 12.6 mg/kg/day, 96 h SC infusion
[7] = rat non-repro NOAEL (F), 16.1 mg/kg/day, 96 h SC infusion
[8] = rat, in vivo, sc, 1.6 mg/kg/day

With “NRG4 compound: NRG4 compound comprising amino acid sequence SEQ ID NO:1: GGGGSGHEEPCGPSHKSFCLNGGLCYQIPTIPSPFCRCVENYTGARCEKVEL; selective HER4 binding (GGGGSGHEEPCGPSHKSFCLNGGLCYQIPTIPSPFCRCVENYTGARCEKVFL)” the “geometric mean F (absolute bioavailability)” value [1] was 104%, the “geometric mean CL” value ([1]; iv) was 6.01 L/h and the “geometric mean Vss” value ([1]; iv) was 13.6 L. For the same substance, the “geometric mean Vz” value ([1]; iv) was 22.0 L, the “geometric mean t1/2” value ([1]; iv) was 2.53 h and the “dose proportionality of AUC (0-0)” value ([1]; sc) was “slightly higher than proportional”. The “dose proportionality of Cmax” value ([1]; sc) was “slightly less than proportional”, the “dose proportionality of PK” value ([1]; sc) was “increase approximately proportionally” and the “geometric mean CL/F” value ([1]; sc) was 4.88 to 6.05 L/h. The “geometric mean Vz/F” value ([1]; sc) was 19.2 to 24.3 L, the “geometric mean t1/2” value ([1]; sc) was 2.45 h and the “mean CL/F” value ([1]; sc) was 4.9 to 6.05 L/h. The mean half-life ([1]; sc) was 2.20 to 3.21 h, the median tmax ([1]; sc) was 2.0 h and the tmax range ([1]; sc) was 1.00 to 4.08 h. The t½ ([1]; sc) was 2.5 to 3 h, the “Cave, ss Multiple, Max Dose” value ([2]; cynomolgus monkey, in vivo) was 16.9 and the “Cave, ss Multiple, Start Dose” value ([2]; cynomolgus monkey, in vivo) was 109. For the same substance, the AUC0-t [2, 5] was 1840 µg·h/mL, the “Cave, ss” value [2, 5] was 18600 ng/mL and the AUC0-t [2, 6] was 148 µg·h/mL. The “Cave, ss” value [2, 6] was 1490 ng/mL, the “NOAEL (M + F) dose” value ([2]; monkey, continuous SC infusion 96 h) was 12.6 mg/kg/day and the AUC0-t [3, 7] was 53.3 µg·h/mL. The “Cave, ss” value [3, 7] was 540 ng/mL, the “Non-repro NOAEL (F) dose” value ([3]; rat, female, continuous SC infusion 96 h) was 16.1 mg/kg/day and the AUC0-t [3, 8] was 7.17 µg·h/mL. The “Cave, ss” value [3, 8] was 72 ng/mL, the “LOAEL (M) dose” value ([3]; rat, male, continuous SC infusion 96 h) was 1.6 mg/kg/day and the “overall safety and tolerability” value ([4]; in vivo) was “safe and well-tolerated”. The “deaths, serious adverse events, discontinuations due to adverse events” value ([4]; single SC 1 to 60 mg or IV 3 mg, healthy participants) was “no deaths, serious adverse events (SAEs) or discontinuations due to adverse events were reported”.
